T1: TGEV RBD (receptor-binding domain of the transmissible gastroenteritis coronavirus spike protein) (transmissible gastroenteritis …)
T1 chain: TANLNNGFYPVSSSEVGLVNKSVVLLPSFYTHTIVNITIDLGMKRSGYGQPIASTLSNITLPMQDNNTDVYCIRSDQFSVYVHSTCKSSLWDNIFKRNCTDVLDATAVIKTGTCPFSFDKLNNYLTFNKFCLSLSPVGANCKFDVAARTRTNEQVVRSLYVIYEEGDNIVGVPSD


Tests used:
[1] = target: Arabian camel aminopeptidase N ectodomain fused with the Fc domain of human IgG (Arabian camel (Camelus dromedarius)); test: SPR
[2] = target: T1, TGEV RBD (receptor-binding domain of …); test: SPR

Binder | Kd [1] | Kd [2]
PDCoV RBD (receptor-binding domain of the porcine deltacoronavirus spike protein) (domain or fragment) VTLPKLPELEVVQLNISAHMDFGEARLDSVTINGNTSYCVTKPYFRLETNFMCTGCTMNLRTDTCSFDLSAVNNGMSFSQFCLSTESGACEMKIIVTYVWNYLLRQRLYVTAVEGQTHTGTTSVHATDTSSV | 10800 nM | –
bovine aminopeptidase N ectodomain fused with the Fc domain of human IgG (Fc fusion, Wild type. Position 797 in the paper is dog APN alignment numbering, not bovine numbering. Limits from TOPO_DOM extracellular. hFc carrier omitted. N-glycosylated (HEK293T).) YAQEKNKNAERGTAAPTSPTGPTTTSATTLDQSKPWNRYRLPTTLLPDSYRVTLRPYLTPNNNGLYIFTGSSTVRFTCKEPTDVIIIHSKKLNYTQHSGHLAALKGVGDTQAPEIDRTELVLLTEYLVVHLKSSLEAGKTYEMETTFQGELADDLAGFYRSEYMDGNVKKVLATTQMQSTDARKSFPCFDEPAMKATFNITLIHPKDLTALSNMPPKGPSVPFDGDSNWSVTEFETTPVMSTYLLAYIVSEFTSVESVAPNDVQIRIWARPKATADNHGLYALNVTGPILNFFANHYNTAYPLPKSDQIALPDFNAGAMENWGLVTYRENALLYDPQSSSSSNKERVVTVIAHELAHQWFGNLVTLAWWNDLWLNEGFASYVEYLGADYAEPTWNLKDLMVPNDVYSVMAVDALVTSHPLTTPANEVNTPAQISEMFDTISYSKGASVIRMLSNFLTEDLFKKGLASYLQTFAYQNTTYLNLWEHLQMAVENQLSIRLPDTVSAIMDRWTLQMGFPVITVDTNTGTISQKHFLLDPNSTVTRPSQFNYLWIVPISSIRNGQPQEHYWLRGEERNQNELFKAAADDWVLLNINVTGYYQVNYDENNWKKIQNQLMSRRENIPVINRAQVIYDSFNLASAHMVPVTLALNNTLFLKNEMEYMPWQAAVSSLNYFKLMFDRTEVYGPMQNYLKNQVEPIFLYFENLTKNWTEIPENLMDQYSEINAISTACSNGLPKCEELAKTLFNQWMNNPNVNPIDPNLRSTIYCNAIAQGGQEEWDFAWNQLQQAELVNEADKLRSALACTNHVWLLNRYLSYTLNPDLIRKQDATSTITSIASNVIGQSLAWDFIRSNWKKLFEDYGGGSFSFSNLIQGVTRRFSTEFELQQLEEFKENNMDVGFGSGTRALEQALEKTKANINWVKENKEVVLNWFKDHS | – | 1660 nM
cat aminopeptidase N ectodomain fused with the Fc domain of human IgG (Fc fusion) YSQEKNRSTESSTAASTAAPTGPTTTVATTLDQSKPWNVYRLPKTLIPDSYNVTLRPYLTPNNKGLYVFTGTNIVRFTCKESTNIVIIHSKRLNYTSHQGHMVALSGVGGFHPQPVIVRTELVELTEYLVVHLQEPLVAGRQYEMNSEFQGELADDLAGFYRSEYMENGVKKVLATTHMQATEARKSFPCFDEPAMKATFNITIIHPNNLVALSNMLPRGPSVPFGEDPTWKVTEFETTPIMSTYLLAYIVSEFSYVETRAPSGVLIRIWARPSAINQGHGDYALKVTGPILDFFSQHYDTPYPLNKSDQIALPDFNAGAMENWGLVTYRESALLYDRQSSSSGNQERVVTVIAHELAHQWFGNLVTLEWWNDLWLNEGFASYVEYLGADFAEPTWNLKDLMVLNDVYRVMAVDALASSHPLSTPASEINTPAQISEVFDSISYSKGASVLRMLSNFLTEDLFKMGIASYLHTYKYGNTIYLNLWEHLQQVVDKQPTIKLPDTVSAIMDRWILQMGFPVITVDTQTGTISQQHFLLDPQSVVTRPSQFNYLWIVPISSVRSGSPQAHYWLPGVEKAQNDLFKTTANDWVLLNLNVTGYYLVNYDNENWKKIQTQLQTDLSVIPVINRAQVIHDAFNLASAQKVPVTLALNNTLFLIQETEYMPWQAALSSLSYFKLMFDRSEVYGPMKRYLKKQVTPLFNHFERVTKNWTDHPQTLMDQYSEINAVSTACSYGVPECEKLAATLFAQWKKNPQNNPIHPNLRSTVYCNAIAQGGEEEWNFVWEQFLKAELVNEADKLRGALACSNQVWILNRFLSYTLDPNLIRKQDVTSTLSSISSNVVGQTLVWDFVQSNWKKLFQDYGTGSFSFSNLIQAVTRRFSTEFELQQLEQFKKNNMDTGFGSATRALEQALEKTKANLKWVKENKDVVLRWFTENS | – | 35.6 nM

Source: publication PMC11741606 (2025)
